B1: KNL1 residues 2,026–2,342 [human] / Mis12 complex (Mis12C), full length: MIS12, PMF1, NSL1, DSN1 [human] (parent complex)
chain 1: SAQNEREKLQIKIDEMDKILKKIDNCLTEMETETKNLEDEEKNNPVEEWDSEMRAAEKELEQLKTEEEELQRNLLELEVQKEQTLAQIDFMQKQRNRTEELLDQLSLSEWDVVEWSDDQAVFTFVYDTIQLTITFEESVVGFPFLDKRYRKIVDVNFQSLLDEDQAPPSSLLVHKLIFQYVEEKESWKKTCTTQHQLPKMLEEFSLVVHHCRLLGEEIEYLKRWGPNYNLMNIDINNNELRLLFSSSAAFAKFEITLFLSAYYPSVPLPSTIQNHVGNTSQDDIATILSKVPLENNYLKNVVKQIYQDLFQDCHFYH
chain 2: MSVDPMTYEAQFFGFTPQTCMLRIYIAFQDYLFEVMQAVEQVILKKLDGIPDCDISPVQIRKCTEKFLCFMKGHFDNLFSKMEQLFLQLILRIPSNILLPEDKCKETPYSEEDFQHLQKEIEQLQEKYKTELCTKQALLAELEEQKIVQAKLKQTLTFFDELHNVGRDHGTSDFRESLVSLVQNSRKLQNIRDNVEKESKRLKIS
chain 3: MAEASSANLGSGCEEKRHEGSSSESVPPGTTISRVKLLDTMVDTFLQKLVAAGSYQRFTDCYKCFYQLQPAMTQQIYDKFIAQLQTSIREEISDIKEEGNLEAVLNALDKIVEEGKVRKEPAWRPSGIPEKDLHSVMAPYFLQQRDTLRRHVQKQEAENQQLADAVLAGRRQVEELQLQVQAQQQAWQALHREQRELVAVLREPE
chain 4: MAGSPELVVLDPPWDKELAAGTESQALVSATPREDFRVRCTSKRAVTEMLQLCGRFVQKLGDALPEEIREPALRDAQWTFESAVQENISINGQAWQEASDNCFMDSDIKVLEDQFDEIIVDIATKRKQYPRKILECVIKTIKAKQEILKQYHPVVHPLDLKYDPDPAPHMENLKCRGETVAKEISEAMKSLPALIEQGEGFSQVLRMQPVIHLQRIHQEVFSSCHRKPDAKPENFITQIETTPTETASRKTSDMVLKRKQTKDCPQRKWYPLRPKKINLDT
chain 5: MTSVTRSEIIDEKGPVMSKTHDHQLESSLSPVEVFAKTSASLEMNQGVSEERIHLGSSPKKGGNCDLSHQERLQSKSLHLSPQEQSASYQDRRQSWRRASMKETNRRKSLHPIHQGITELSRSISVDLAESKRLGCLLLSSFQFSIQKLEPFLRDTKGFSLESFRAKASSLSEELKHFADGLETDGTLQKCFEDSNGKASDFSLEASVAEMKEYITKFSLERQTWDQLLLHYQQEAKEILSRGSTEAKITEVKVEPMTYLGSSQNEVLNTKPDYQKILQNQSKVFDCMELVMDELQGSVKQLQAFMDESTQCFQKVSVQLGKRSMQQLDPSPARKLLKLQLQNPPAIHGSGSGSCQ

The text below walks through data of article PMC11189300 (2024).

In general, Kd refers to the equilibrium constant for the complex coming apart.

The variants in the first assay derive from B1. Description: ITC; syringe KNL1^WT; cell Mis12C^M1; parent: -12. A general note: In ITC the heat of successive injections is recorded.
For chain 3 R195A, chain 3 V198L, chain 5 L290F, the dG is -10.

Variants of B1 are the subject of a further assay. Nature of the assay: ITC; syringe KNL1^WT; cell Mis12C^M2; parent: 1.56 nM.
For the variant chain 3 R195E, chain 3 V198L, chain 5 L290F, the equilibrium dissociation constant (Kd) was found to be 0.0248 µM.

In another assay the parent is B1. Description: ITC; syringe KNL1^M1; cell Mis12C^WT; parent: 1.56 nM.
As to chain 1 M231A, chain 1 S247W, chain 1 F250A, chain 1 K252A, the equilibrium dissociation constant (Kd) was 0.14 µM.

The next assay covers variants of B1. Description: ITC; syringe KNL1^M2; cell Mis12C^WT; parent: 1.56 nM.
For chain 1 M231A, chain 1 S247W, chain 1 F250A, chain 1 K252E, the Kd came to 0.109 µM.
